PMC9344466, “The Dual Roles of MAGE-C2 in p53 Ubiquitination and Cell Proliferation Through E3 Ligases MDM2 and TRIM28” (Frontiers in Cell and Developmental Biology, 2022)
Values belong to the binder of their own block, whether it stands above or below them.

Target: T1, SUMO-MDM2 (full length, residues 1-491) (human, UniProt Q00987 1-491)
T1 construct: MDM2, human, full length, residues 1-491; cloned into a SUMO vector (modified pET-28a); eluted without tag cleavage; also called sumo-tagged MDM2; SUMO-MDM2 fusion protein; source: E. coli BL21 (DE3), purified (HisTrap, Superdex 200)
Test: pull-down; GST-tagged MAGE-C2 proteins on glutathione Sepharose beads, SUMO-MDM2 added; both expressed in bacterium; 20 mM Tris pH 8, 150 mM NaCl, 0.2 mM TCEP, 0.02% Triton-100, 5% milk powder, 4°C; anti-MDM2 Western blot (Figure 2A)
Conditions: both partners purified

T1 sequence (Q00987 whole entry, the tested form may be a part): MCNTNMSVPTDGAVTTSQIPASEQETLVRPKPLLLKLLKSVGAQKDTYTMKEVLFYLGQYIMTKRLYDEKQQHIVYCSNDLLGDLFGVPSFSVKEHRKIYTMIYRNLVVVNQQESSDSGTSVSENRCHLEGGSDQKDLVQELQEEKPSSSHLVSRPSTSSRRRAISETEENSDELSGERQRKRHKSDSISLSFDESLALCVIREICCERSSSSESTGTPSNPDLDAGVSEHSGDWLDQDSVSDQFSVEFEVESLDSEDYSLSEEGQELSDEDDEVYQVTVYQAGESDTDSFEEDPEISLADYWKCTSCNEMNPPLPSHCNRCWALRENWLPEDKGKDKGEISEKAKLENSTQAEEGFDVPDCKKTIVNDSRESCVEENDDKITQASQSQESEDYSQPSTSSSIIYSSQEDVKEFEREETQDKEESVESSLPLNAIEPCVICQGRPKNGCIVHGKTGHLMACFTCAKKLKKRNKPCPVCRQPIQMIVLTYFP

binding result: binds
B1: GST-tagged MAGE-C2 MHD domain (residues 140-350) (domain or fragment, human, UniProt Q9UBF1 140-350, looked up)
chain: TLDEKVAELVEFLLLKYEAEEPVTEAEMLMIVIKYKDYFPVILKRAREFMELLFGLALIEVGPDHFCVFANTVGLTDEGSDDEGMPENSLLIIILSVIFIKGNCASEEVIWEVLNAVGVYAGREHFVYGEPRELLTKVWVQGHYLEYREVPHSSPPYYEFLWGPRAHSESIKKKVLEFLAKLNNTVPSSFPSWYKDALKDVEERVQATIDT
notes: MAGE-C2, human, MAGE homology domain (MHD), residues 140-350; synthetic gene in pGEX-6p-1; In the ubiquitination assays other forms were used (GST cut off in vitro; Myc-tagged in HEK293T cells); also called MHD^WT; GST-MAGE-C2; source: E. coli BL21 (DE3), purified (glutathione Sepharose); not shown: GST, N-terminal, kept

binding result: binds
B2: GST-tagged MAGE-C2 full length (residues 1-373) (natural protein, human, UniProt Q9UBF1 1-373, looked up)
chain: MPPVPGVPFRNVDNDSPTSVELEDWVDAQHPTDEEEEEASSASSTLYLVFSPSSFSTSSSLILGGPEEEEVPSGVIPNLTESIPSSPPQGPPQGPSQSPLSSCCSSFSWSSFSEESSSQKGEDTGTCQGLPDSESSFTYTLDEKVAELVEFLLLKYEAEEPVTEAEMLMIVIKYKDYFPVILKRAREFMELLFGLALIEVGPDHFCVFANTVGLTDEGSDDEGMPENSLLIIILSVIFIKGNCASEEVIWEVLNAVGVYAGREHFVYGEPRELLTKVWVQGHYLEYREVPHSSPPYYEFLWGPRAHSESIKKKVLEFLAKLNNTVPSSFPSWYKDALKDVEERVQATIDTADDATVMASESLSVMSSNVSFSE
notes: MAGE-C2, human, full length, residues 1-373; synthetic gene in pGEX-6p-1 with a 3C protease site after GST; In the ubiquitination assays the GST tag had been cut off with 3C protease; in the pull-down GST was kept; also called MAGE-C2 FL; GST-MAGE-C2; source: E. coli BL21 (DE3), purified (glutathione Sepharose); not shown: GST, N-terminal, kept
